Measured values published in paper PMC11446014, “Human IL-22 receptor-targeted small protein antagonist suppress murine DSS-induced colitis” (Cell Communication and Signaling : CCS, 2024).
Values belong to the binder of their own block, whether it stands above or below them.

What was measured:
Conditions in all cases: both partners purified
[1] = target: T1, recombinant human IL-22R1 (rhIL-22 Rα1) (human, UniProt Q8N6P7 16-228); assay: ELISA; receptor (IL-22R1 or IL-22R1-IgG Fc) coated on MaxiSorp plate; serially diluted IL-22 (Fc chimera or His tag); detection by mouse anti-human IgG (Fc)-HRP or anti-His monoclonal antibody-HRP; BSA wells as control
T1 construct: recombinant human IL-22 receptor alpha (rhIL-22 Rα1); also called commercial IL-22R1; source: bought: R&D Systems
T1 sequence (looked up): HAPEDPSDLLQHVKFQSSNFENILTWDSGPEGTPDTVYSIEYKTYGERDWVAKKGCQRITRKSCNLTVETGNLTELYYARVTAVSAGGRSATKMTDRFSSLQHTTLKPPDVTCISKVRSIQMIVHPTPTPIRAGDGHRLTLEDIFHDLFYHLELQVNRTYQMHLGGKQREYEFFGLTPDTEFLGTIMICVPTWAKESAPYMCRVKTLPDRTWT

[2] = target: T2, recombinant human IL-22R1 (rhIL-22 Rα1) (human, UniProt Q8N6P7 16-228); assay: ELISA; competition: human IL-22R1 coated (1 µg/ml) on MaxiSorp; purified ABD-derived variants serially diluted in PBS-T with 1% BSA with 1 nM IL-22 Fc chimera; IL-22-Fc detected by anti-human IgG (Fc) HRP
T2 construct: human interleukin-22 receptor alpha (IL-22R1), recombinant soluble protein; Probably the extracellular part; also called IL-22 receptor alpha; commercial IL-22R1; source: bought: R&D Systems
T2 sequence (looked up): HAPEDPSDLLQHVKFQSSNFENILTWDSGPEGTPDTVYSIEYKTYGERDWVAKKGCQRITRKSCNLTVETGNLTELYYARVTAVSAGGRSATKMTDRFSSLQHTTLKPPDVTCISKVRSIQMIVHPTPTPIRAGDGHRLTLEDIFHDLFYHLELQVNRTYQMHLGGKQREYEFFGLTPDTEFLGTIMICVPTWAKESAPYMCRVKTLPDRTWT

[3] = target: T2, recombinant human IL-22R1 (rhIL-22 Rα1); assay: ELISA; IL-22 on IL-22R1 coated on a MaxiSorp 96-well plate (Fig. S1)

binding result [1]: binds
B1: recombinant human IL-22 protein, Fc Chimera (Fc fusion, UniProt Q9GZX6 34-179, looked up)
chain: APISSHCRLDKSNFQQPYITNRTFMLAKEASLADNNTDVRLIGEKLFHGVSMSERCYLMKQVLNFTLEEVLFPQSDRFQPYMQEVVPFLARLSNRLSTCHIEGDDLHIQRNVQKLKDTVKKLGESGEIKAIGELDLLFMSLRNACI
notes: human interleukin-22 fused to human IgG Fc; also called IL-22-IgG Fc cytokine; IL-22 (Fc chimera); source: bought: Abcam

binding result [2]: binds
B2: recombinant human IL-22 protein, Fc Chimera (Fc fusion, UniProt Q9GZX6 34-179, looked up)
chain: APISSHCRLDKSNFQQPYITNRTFMLAKEASLADNNTDVRLIGEKLFHGVSMSERCYLMKQVLNFTLEEVLFPQSDRFQPYMQEVVPFLARLSNRLSTCHIEGDDLHIQRNVQKLKDTVKKLGESGEIKAIGELDLLFMSLRNACI
notes: human interleukin-22; also called IL-22-Fc; IL-22 cytokine; source: bought: Abcam

binding result [3]: binds
B3: human IL-22 (ligand, UniProt Q9GZX6 34-179, looked up)
chain: APISSHCRLDKSNFQQPYITNRTFMLAKEASLADNNTDVRLIGEKLFHGVSMSERCYLMKQVLNFTLEEVLFPQSDRFQPYMQEVVPFLARLSNRLSTCHIEGDDLHIQRNVQKLKDTVKKLGESGEIKAIGELDLLFMSLRNACI
notes: human interleukin-22; it may be m16 or m17; also called hIL-22; IL-22 cytokine; source: bought: Abcam (cell assays)
